Key:
[1] = test system: RsuA G127C-Cy5 (Escherichia coli); assay: FRET; conditions: 4 mM Mg2+, FRET: 80 mM K-Hepes pH 7.6, 330 mM KCl, 0-20 mM MgCl2, 2 nM RNA folded at 37 C. Filter binding: 80 mM K-Hepes pH 7.6, 50 mM KCl, 4 mM MgCl2, 6 mM …; for binding signal: scale: fold higher affinity than wild type
[2] = test system: RsuA wild type (Escherichia coli); assay: filter binding; conditions: 4 mM Mg2+; fit 0-2 uM, bound fraction falls above 2 uM; FRET: 80 mM K-Hepes pH 7.6, 330 mM KCl, 0-20 mM MgCl2, 2 nM RNA folded at 37 C. Filter binding: 80 mM K-Hepes pH 7.6, 50 mM KCl, 4 mM MgCl2, 6 mM …
[3] = test system: RsuAΔN (S4-like domain truncation) (Escherichia coli); assay: filter binding; conditions: 4 mM Mg2+; fit 0-15 uM; FRET: 80 mM K-Hepes pH 7.6, 330 mM KCl, 0-20 mM MgCl2, 2 nM RNA folded at 37 C. Filter binding: 80 mM K-Hepes pH 7.6, 50 mM KCl, 4 mM MgCl2, 6 mM …

Q: How did the binding signal (fold lower Kd than wild type (3.9 nM)) [1] turn out when 16S 5'-domain C507G was run?
A: 390

Q: With 16S 5'-domain G505C as the substance, how does the binding signal [1] read?
A: > 30

Q: How did the binding signal [1] turn out when 16S 5'-domain G505C:G506C was run?
A: > 30

Q: With 16S 5'-domain rRNA (filter binding) as the substance, how does the Kd [2] read?
A: 12 nM

Q: What about the Kd [3] of the same substance?
A: 57 nM

— article PMC7356742
